Source: patent publication US20250057951A1, “DISCERNIBLE CELL SURFACE PROTEIN VARIANTS OF CD117 FOR USE IN CELL THERAPY” (UNIVERSITÄT BASEL, priority 2021, published 2025)
Substitutions are numbered along the chain they refer to. In names and notes the source's numbering stands.

B1: E73R: variant of human CD117 with substitution E73R (protein)
chain: QPSVSPGEPSPPSIHPGKSDLIVRVGDEIRLLCTDPGFVKWTFEILDRTNENKQNEWITEKAEATNTGKYTCTNKHGLSNSIYVFVRDPAKLFLVDRSLYGKEDNDTLVRCPLTDPEVTNYSLKGCQGKPLPKDLRFIPDPKAGIMIKSVKRAYHRLCLHCSVDQEGKSVLSEKFILKVRPAFKAVPVVSVSKASYLLREGEEFTVTCTIKDVSSSVYSTWKRENSQTKLQEKYNSWHHGDFNYERQATLTISSARVNDSGVFMCYANNTFGSANVTTTLEVVDKG
B2: E73L: variant of human CD117 with substitution E73L (protein)
chain: B1 chain with R48L
B3: D121H: variant of human CD117 with substitution D121H (protein)
chain: B1 chain with R48E, D96H
B4: S123E: variant of human CD117 with substitution S123E (protein)
chain: B1 chain with R48E, S98E
B5: R122E (receptor)
extracellular domains 1, 2 and 3: QPSVSPGEPSPPSIHPGKSDLIVRVGDEIRLLCTDPGFVKWTFEILDETNENKQNEWITEKAEATNTGKYTCTNKHGLSNSIYVFVRDPAKLFLVDESLYGKEDNDTLVRCPLTDPEVTNYSLKGCQGKPLPKDLRFIPDPKAGIMIKSVKRAYHRLCLHCSVDQEGKSVLSEKFILKVRPAFKAVPVVSVSKASYLLREGEEFTVTCTIKDVSSSVYSTWKRENSQTKLQEKYNSWHHGDFNYERQATLTISSARVNDSGVFMCYANNTFGSANVTTTLEVVD
notes: not in the list MOLECULES; also called human CD117 D1-2-3 variant R122E
B6: R122S (receptor)
extracellular domains 1, 2 and 3: B5 extracellular domains 1, 2 and 3 with E97S
notes: not in the list MOLECULES; also called human CD117 D1-2-3 variant R122S
B7: S123P: variant of human CD117 with substitution S123P (protein)
chain: B1 chain with R48E, S98P
B8: S123Q: variant of human CD117 with substitution S123Q (protein)
chain: B1 chain with R48E, S98Q
B9: D121T: variant of human CD117 with substitution D121T (protein)
chain: B1 chain with R48E, D96T
B10: S123M: variant of human CD117 with substitution S123M (protein)
chain: B1 chain with R48E, S98M
B11: D121Y: variant of human CD117 with substitution D121Y (protein)
chain: B1 chain with R48E, D96Y
B12: D121R: variant of human CD117 with substitution D121R (protein)
chain: B1 chain with R48E, D96R
B13: K193G (receptor)
extracellular domains 1, 2 and 3: B5 extracellular domains 1, 2 and 3 with E97R, K168G
notes: not in the list MOLECULES; also called human CD117 D1-2-3 variant K193G
B14: K193M (receptor)
extracellular domains 1, 2 and 3: B5 extracellular domains 1, 2 and 3 with E97R, K168M
notes: not in the list MOLECULES; also called human CD117 D1-2-3 variant K193M
B15: D121S (receptor)
extracellular domains 1, 2 and 3: B5 extracellular domains 1, 2 and 3 with D96S, E97R
notes: not in the list MOLECULES; also called human CD117 D1-2-3 variant D121S
B16: D121V (receptor)
extracellular domains 1, 2 and 3: B5 extracellular domains 1, 2 and 3 with D96V, E97R
notes: not in the list MOLECULES; also called human CD117 D1-2-3 variant D121V
B17: K193D (receptor)
extracellular domains 1, 2 and 3: B5 extracellular domains 1, 2 and 3 with E97R, K168D
notes: not in the list MOLECULES; also called human CD117 D1-2-3 variant K193D
B18: K193E (receptor)
extracellular domains 1, 2 and 3: B5 extracellular domains 1, 2 and 3 with E97R, K168E
notes: not in the list MOLECULES; also called human CD117 D1-2-3 variant K193E
B19: V120I (receptor)
extracellular domains 1, 2 and 3: B5 extracellular domains 1, 2 and 3 with V95I, E97R
notes: not in the list MOLECULES; also called human CD117 D1-2-3 variant V120I
B20: R122L (receptor)
extracellular domains 1, 2 and 3: B5 extracellular domains 1, 2 and 3 with E97L
notes: not in the list MOLECULES; also called human CD117 D1-2-3 variant R122L
B21: E73G (receptor)
extracellular domains 1, 2 and 3: B5 extracellular domains 1, 2 and 3 with E48G, E97R
notes: not in the list MOLECULES; also called human CD117 D1-2-3 variant E73G
B22: K193T (receptor)
extracellular domains 1, 2 and 3: B5 extracellular domains 1, 2 and 3 with E97R, K168T
notes: not in the list MOLECULES; also called human CD117 D1-2-3 variant K193T

molecular target: antibody Refmab #1; experiment: Octet titration, steady state KD of CD117 D1-2-3 variants to Refmab #1; type: binding; conditions: 7 concentrations 2000-5 nM; steady state; two individual experiments
Sequence (as listed by the source): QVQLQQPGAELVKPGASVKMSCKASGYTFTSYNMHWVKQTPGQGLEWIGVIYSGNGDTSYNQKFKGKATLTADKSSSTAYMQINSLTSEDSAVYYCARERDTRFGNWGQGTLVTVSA
Sequence (as listed by the source): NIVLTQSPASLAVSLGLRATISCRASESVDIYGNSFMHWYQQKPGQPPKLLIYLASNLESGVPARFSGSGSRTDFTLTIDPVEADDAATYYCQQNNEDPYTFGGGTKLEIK
Experimental: To further characterize binding of Refmab #1 to CD117 D1-2-3 variants E73K, E73L, E73R, E73Y, D121H, D121K, S123K and S123F, the analytes were titrated at 7 different concentrations (from 2000 nM to 5 nM). Antibody Refmab #1 was captured by AHC biosensors for 300 s at 0.5 to 1 μg/mL. Association and dissociation to Refmab #1 was extended to 600 s and 1000 s, respectively. Steady state analysis was performed.

Row | Molecule | Kd [nM]
1 | B1 | 958
2 | B2 | 485

same assay, conditions: KD variant vs wild type

Row | Molecule | change of KD compared to wild type CD117
3 | B1 | around 1000 fold
4 | B2 | around 500 fold

same assay, conditions: nm shift higher than 0.1 nm counts as binding

Row | Molecule | binding of Refmab #1 at 2000 nM variant
5 | B3 | No binding
6 | B4 | do not show any binding

system: antibody Refmab #1; experiment: Octet screen: binding of CD117 D1-2-3 variants to captured Refmab #1; conditions: nm shift at end of association, top analyte concentration (500 nM)
Experimental: A more sophisticated analysis of binding to the elected variants was performed with antibody Refmab #1. Binding of Refmab #1 to wt and variants (analyte) was measured in an Octet system RED96e or R8 at 25° C. with shaking at 1,000 rpm using 1× kinetic buffer (Sartorius, PN: 18-1105). First, the elected variants were screened for their ability to bind Refmab #1 using three different concentrations of analytes. Antibody Refmab #1 was captured by Anti-Human Fc capture biosensor (AHC) (Sartorius, PN: 18-5060) for 300 s at 0.5 to 1 μg/mL. As an analyte, human CD117 wt and variants, containing only domains 1, 2 and 3 (CD117 D1-2-3), was titrated at 500 nM, 50 nM and 5 nM. Association and dissociation of the analyte to Refmab #1 was monitored for 300 s and 900 s, respectively. Reference subtraction was performed against buffer only wells. AHC tips were regenerated using 10 mM Gly-HCl pH 1.7. Data were analyzed using the Octet Data Analysis software HT 12.0. Data were fitted (when possible) to a 1:1 binding model. Kinetic rates ka and […] globally fitted. Binding level of the elected variants were compared to wild type and are shown as percent in FIG. 7. For this qualitative analysis, the binding level of the top analyte concentration at end of the association step was used.

Row | Molecule | binding to Refmab #1 compared to wild type
7 | S1231: variant of human CD117, printed S1231, probably substitution S123I | strong decrease in binding
8 | B5 | particular strong decrease in binding
9 | B6 | particular strong decrease in binding
10 | B7 | particular strong decrease in binding
11 | B1 | particular strong decrease in binding
12 | B8 | strong decrease in binding
13 | B3 | particular strong decrease in binding
14 | B4 | particular strong decrease in binding
15 | B9 | particular strong decrease in binding
16 | B10 | strong decrease in binding
17 | B11 | particular strong decrease in binding
18 | B12 | strong decrease in binding

molecular target: T1, Biotinylated Avitag-hSCF (human, UniProt P21583 26-190, limits assumed, biotinylated Avitag); experiment: BLI (Octet), steady state: biotinylated SCF on streptavidin biosensor, CD117 D1-2-3 variant as analyte; KD relative to WT; conditions: not given
T1 construct: Bought reagent; also called hSCF (Acros Biosystems SCF-H82E1)
T1 sequence (P21583 26-190 limits assumed): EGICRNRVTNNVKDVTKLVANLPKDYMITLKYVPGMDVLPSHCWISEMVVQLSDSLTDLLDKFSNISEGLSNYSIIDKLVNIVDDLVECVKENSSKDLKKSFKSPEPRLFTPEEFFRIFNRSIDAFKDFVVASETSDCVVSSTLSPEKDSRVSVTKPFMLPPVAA

Row | Molecule | binding result
19 | B13 | binds
20 | B14 | binds
21 | B15 | binds
22 | B16 | binds
23 | B17 | binds
24 | B18 | binds
25 | B5 | binds
26 | B19 | binds
27 | B20 | binds
28 | B21 | binds
29 | B22 | binds
30 | B6 | binds
